These results are taken from patent publication US20040053296A1 (TAKARA BIO, published 2004).

The target of assay [1] is T1, 94-kDa mouse neutral ceramidase from the soluble fraction of the liver, lacking the mucin box (mouse, UniProt Q9JHE3 75-756, limits assumed).
T1 construct: The whole entry is named here, and the true chain is shorter at the N-terminus; also called 94-kDa CDase; enzyme in the soluble fraction of the liver
Nature of the assay: lectin blot with HRP-labeled PNA lectin after immunoprecipitation from mouse liver soluble fraction.

In assay [2] the target is T2, mucin box-deleted mutant of rat neutral ceramidase (delta-mucin CDase), C-terminal myc tag (rat, UniProt Q91XT9 1-761).
T2 construct: Expressed in HEK293 cells, immunoprecipitated and blotted; also called Δmucin; Δmucin CDase; not shown: C-terminal Myc-His tag from vector pcDNA3.1/Myc-his(+)
In words: lectin blot with HRP-labeled PNA lectin after immunoprecipitation from HEK293 lysate. As for the experimental part:
CDase was immunoprecipitated from the cell lysate of HEK293 cells prepared in Example 2, in which Δmucin or wild-type CDase was expressed, by using an anti-CDase antibody. A 100-fold dilution of anti-CDase was coupled with 10 μl of protein A-agarose (trade name, manufactured by SANTA CRUZ) in 100 μl of a reaction buffer (10 mM Tris-HCl, pH 7.5, containing 150 mM NaCl, 1% (v/v) Tritonm X-100 and 0.1% (w/v) BSA) at 4° C. for 2 hours. The product obtained was washed five times with the above reaction buffer. Thereafter, this product was mixed with a CDase sample, obtained by previously heating at 100° C. for 5 minutes in SDS sample buffer [20 mM Tris-HCl, pH 7.5, containing 1% (w/v) SDS and 1% (v/v) 2-mercaptoethanol], and incubated at 4° C. for 18 hours with gentle stirring. Subsequently, the immunoprecipitate was sedimented by centrifugation, washed five times with the above reaction buffer, suspended in 20 μl of the SDS sample buffer, and heated at 100° C. for 5 minutes. The resulting product was subjected to SDS-PAGE and Western blotting as described in Example 2. The PVDF membrane was stained with an anti-Myc antibody or an HRP-labeled PNA lectin. PNA (peanut agglutinin) lectin is a lectin capable of specifically recognizing and binding to the Galβ1,3GalNAc sequence of O-glycan.

T2 sequence (Q91XT9 other isoform, or with tags, fused parts or gaps mutant): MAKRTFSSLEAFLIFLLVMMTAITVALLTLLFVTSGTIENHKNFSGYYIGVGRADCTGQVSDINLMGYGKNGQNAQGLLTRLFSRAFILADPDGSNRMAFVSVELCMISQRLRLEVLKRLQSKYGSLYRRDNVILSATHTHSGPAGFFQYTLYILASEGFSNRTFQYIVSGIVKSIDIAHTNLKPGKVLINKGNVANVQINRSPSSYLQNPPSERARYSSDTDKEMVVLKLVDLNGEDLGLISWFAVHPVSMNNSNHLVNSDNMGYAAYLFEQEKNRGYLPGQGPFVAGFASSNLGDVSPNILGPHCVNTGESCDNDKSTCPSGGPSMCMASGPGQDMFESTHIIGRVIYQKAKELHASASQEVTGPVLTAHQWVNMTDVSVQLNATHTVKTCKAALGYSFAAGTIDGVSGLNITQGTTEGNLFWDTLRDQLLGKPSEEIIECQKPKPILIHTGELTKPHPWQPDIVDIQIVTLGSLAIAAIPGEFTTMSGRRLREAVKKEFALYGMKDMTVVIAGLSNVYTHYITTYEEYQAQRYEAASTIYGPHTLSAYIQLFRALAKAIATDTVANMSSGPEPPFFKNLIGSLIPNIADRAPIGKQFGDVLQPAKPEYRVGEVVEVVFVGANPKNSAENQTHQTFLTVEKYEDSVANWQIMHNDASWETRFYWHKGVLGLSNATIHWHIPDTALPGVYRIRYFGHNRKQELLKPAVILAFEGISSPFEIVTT
T1 sequence (Q9JHE3 75-756 limits assumed): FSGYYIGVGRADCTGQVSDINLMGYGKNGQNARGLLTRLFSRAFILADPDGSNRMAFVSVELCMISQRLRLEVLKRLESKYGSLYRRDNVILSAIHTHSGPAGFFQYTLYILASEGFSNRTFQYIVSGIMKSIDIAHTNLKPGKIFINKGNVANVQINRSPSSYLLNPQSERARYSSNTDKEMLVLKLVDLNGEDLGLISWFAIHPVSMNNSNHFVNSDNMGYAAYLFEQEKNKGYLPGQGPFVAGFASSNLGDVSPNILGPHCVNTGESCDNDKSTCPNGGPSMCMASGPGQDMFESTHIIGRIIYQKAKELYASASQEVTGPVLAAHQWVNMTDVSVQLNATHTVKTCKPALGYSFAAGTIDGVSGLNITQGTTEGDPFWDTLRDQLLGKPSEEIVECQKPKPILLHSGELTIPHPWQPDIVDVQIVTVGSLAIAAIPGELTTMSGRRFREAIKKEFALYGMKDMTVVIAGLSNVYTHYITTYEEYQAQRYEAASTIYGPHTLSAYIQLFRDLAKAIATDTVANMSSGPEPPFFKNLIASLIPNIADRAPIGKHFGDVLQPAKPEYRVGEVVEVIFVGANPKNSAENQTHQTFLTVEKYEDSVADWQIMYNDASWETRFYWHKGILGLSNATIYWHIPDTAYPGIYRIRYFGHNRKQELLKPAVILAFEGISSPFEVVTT

B1: HRP-labeled PNA lectin (peanut agglutinin) (other, UniProt P02872 24-259, looked up)
chain: AETVSFNFNSFSEGNPAINFQGDVTVLSNGNIQLTNLNKVNSVGRVLYAMPVRIWSSATGNVASFLTSFSFEMKDIKDYDPADGIIFFIAPEDTQIPAGSIGGGTLGVSDTKGAGHFVGVEFDTYSNSEYNDPPTDHVGIDVNSVDSVKTVPWNSVSGAVVKVTVIYDSSTKTLSVAVTNDNGDITTIAQVVDLKAKLPERVKFGFSASGSLGGRQIHLIRSWSFTSTLITTTRRS
modifications: HRP-labeled
notes: Lectin used as a blotting reagent; also called peanut lectin
On to B1, for which the binding result in assay [1] and in assay [2] was “no binding” each time.
